{
  "source": "patent US20120148565",
  "proteins": {"B1": {"name": "recombinant UBC-18 (C. elegans E2 ubiquitin conjugating enzyme, GST tag removed by thrombin cleavage) (protein)", "chain": "MSATRRLQKELGDLKNCGVKAYENVECEETNLLKWTVLLIPDKEPYNKGAFKVGITFPVDYPFKPPKVAFETKIYHPNVDEEGKFCLPIVTAENWKPATKTEQVMMALLSLINEPEPSHPIRADVAEEFQKDHKKFMKTAEEHTRKHAEKRPE"}},
  "key": {"[1]": {"molecular_target": "GST fused WWP-1 (C. elegans HECT E3 ubiquitin ligase WWP-1, full length, wild type, N-terminal GST from pGEX-KG)", "sequence (chain, as listed by the source)": "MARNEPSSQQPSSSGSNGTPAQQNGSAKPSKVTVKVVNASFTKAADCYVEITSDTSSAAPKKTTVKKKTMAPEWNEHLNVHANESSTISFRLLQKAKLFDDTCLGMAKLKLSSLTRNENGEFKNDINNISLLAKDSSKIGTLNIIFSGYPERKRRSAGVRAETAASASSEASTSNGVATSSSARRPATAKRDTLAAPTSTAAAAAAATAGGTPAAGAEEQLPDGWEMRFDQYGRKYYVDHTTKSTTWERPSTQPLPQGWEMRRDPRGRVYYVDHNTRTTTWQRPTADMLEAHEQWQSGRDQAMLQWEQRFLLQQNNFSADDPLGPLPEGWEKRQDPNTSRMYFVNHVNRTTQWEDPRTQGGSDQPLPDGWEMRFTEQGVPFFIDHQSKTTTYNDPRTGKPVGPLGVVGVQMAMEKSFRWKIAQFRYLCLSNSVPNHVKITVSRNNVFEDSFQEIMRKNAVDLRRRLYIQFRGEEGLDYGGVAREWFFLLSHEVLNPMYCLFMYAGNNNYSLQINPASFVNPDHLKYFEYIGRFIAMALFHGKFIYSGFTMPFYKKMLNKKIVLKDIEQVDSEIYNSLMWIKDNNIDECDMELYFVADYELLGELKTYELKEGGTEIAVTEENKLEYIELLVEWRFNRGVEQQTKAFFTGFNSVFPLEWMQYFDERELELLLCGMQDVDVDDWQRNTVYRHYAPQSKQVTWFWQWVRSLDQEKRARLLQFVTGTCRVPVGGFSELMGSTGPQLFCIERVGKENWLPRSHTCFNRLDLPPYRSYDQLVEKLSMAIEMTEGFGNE"}},
  "data": [
    {"protein": "B1", "values": [
      {"measurement": "in vitro ubiquitin conjugation reaction, SDS/PAGE with or without beta-mercaptoethanol", "setting": "Flag tagged ubiquitin", "result": "UBC-18 is indeed a functional E2 and is capable of forming a thiol ester bond with ubiquitin"},
      {"measurement": "in vitro ubiquitination assay of WWP-1 with embryo extract from ubc-18(ku354) mutant worms, recombinant UBC-18 added back", "setting": "[1]", "result": "ligase activity was restored with the addition of recombinant UBC-18"},
      {"measurement": "in vitro ubiquitination assay using purified components (anti-Flag immunoblot)", "setting": "[1]", "result": "WWP-1 exhibited ubiquitin ligase activity in an E1 and UBC-18 dependent manner"}
    ]}
  ]
}
